Drawing on article doi:10.1101/2023.05.08.539884 (bioRxiv, 2023), this text covers Kd for one molecule.

“And” between values parts separate entries of the source, which are not always exact repeats. Equal values may be shown once.

In the test the target is UBE2A (UniProt P49459 1-152). The test can be described thus: ITC. In general terms: In ITC the heat of successive injections is recorded.

B1: UBR4_(4730-5183) (domain or fragment)
chain: AIQHPGTQVLIGTDSIPNLHKLEQVSSDEGIGTLAENLLEALREHPDVNKKIDAARRETRAEKKRMAMAMRQKALGTLGMTTNEKGQVVTKTALLKQMEELIEEPGLTCCICREGYKFQPTKVLGIYTFTKRVALEEMENKPRKQQGYSTVSHFNIVHYDCHLAAVRLARGREEWESAALQNANTKCNGLLPVWGPHVPESAFATCLARHNTYLQECTGQREPTYQLNIHDIKLLFLRFAMEQSFSADTGGGGRESNIHLIPYIIHTVLYVLNTTRATSREEKNLQGFLEQPKEKWVESAFEVDGPYYFTVLALHILPPEQWRATRVEILRRLLVTSQARAVAPGGATRLTDKAVKDYSAYRSSLLFWALVDLIYNMFKKVPTSNTEGGWSCSLAEYIRHNDMPIYEAADKALKTFQEEFMPVETFSEFLDVAGLLSEITDPESFLKDLLNSVP
B1: the Kd (in general, the equilibrium constant for the complex coming apart) was 2800 nM and 2580 nM.
